Reference: the Immune Epitope Database (IEDB)
Each block holds one sequence with its values, some of them ahead of it.

Legend:
[1] = molecular target: HLA-B*18:01; test: IEDB peptide-MHC binding, purified MHC/competitive/radioactivity; filed as Kd, often an IC50 or EC50 that approximates it; ≥ and ≤ were set here for values at or beyond the usual limits of such assays
[2] = molecular target: HLA-B*44:02; test: as above
[3] = molecular target: HLA-B*40:01; test: as above
[4] = molecular target: HLA-B*40:02; test: as above
[5] = molecular target: HLA-B*44:03; test: as above
[6] = molecular target: HLA-B*45:01; test: as above
[7] = molecular target: HLA-A*03:01; test: IEDB peptide-MHC binding, purified MHC/competitive/fluorescence; filed as Kd, often an IC50 or EC50 that approximates it; ≥ and ≤ were set here for values at or beyond the usual limits of such assays
[8] = molecular target: HLA-A*02:06; test: IEDB peptide-MHC binding, purified MHC/competitive/radioactivity; filed as Kd, often an IC50 or EC50 that approximates it; ≥ and ≤ were set here for values at or beyond the usual limits of such assays
[9] = molecular target: HLA-A*32:01; test: as above
[10] = molecular target: HLA-B*57:01; test: IEDB peptide-MHC binding, purified MHC/direct/fluorescence; filed as Kd, often an IC50 or EC50 that approximates it; ≥ and ≤ were set here for values at or beyond the usual limits of such assays
[11] = molecular target: HLA-B*15:17; test: as above
[12] = molecular target: HLA-B*58:01; test: as above
[13] = molecular target: HLA-A*68:02; test: IEDB peptide-MHC binding, purified MHC/competitive/radioactivity; filed as Kd, often an IC50 or EC50 that approximates it; ≥ and ≤ were set here for values at or beyond the usual limits of such assays
[14] = molecular target: HLA-A*02:17; test: as above
[15] = molecular target: HLA-A*02:01; test: as above
[16] = molecular target: HLA-A*02:03; test: as above
[17] = molecular target: HLA-A*69:01; test: IEDB peptide-MHC binding, purified MHC/direct/fluorescence; filed as Kd, often an IC50 or EC50 that approximates it; ≥ and ≤ were set here for values at or beyond the usual limits of such assays; details: source organism: Mycobacterium tuberculosis
[18] = molecular target: HLA-B*07:02; test: as above; details: source organism: Mycobacterium tuberculosis str. Haarlem
[19] = molecular target: HLA-B*08:02; test: as above
[20] = molecular target: HLA-B*08:01; test: as above
[21] = molecular target: HLA-A*01:01; test: IEDB peptide-MHC binding, purified MHC/competitive/radioactivity; filed as Kd, often an IC50 or EC50 that approximates it; ≥ and ≤ were set here for values at or beyond the usual limits of such assays; details: source organism: Dengue virus 1 Brazil/97-11/1997
[22] = molecular target: HLA-A*02:01; test: IEDB peptide-MHC binding, purified MHC/competitive/fluorescence; filed as Kd, often an IC50 or EC50 that approximates it; ≥ and ≤ were set here for values at or beyond the usual limits of such assays
[23] = molecular target: HLA-B*35:01; test: IEDB peptide-MHC binding, purified MHC/competitive/radioactivity; filed as Kd, often an IC50 or EC50 that approximates it; ≥ and ≤ were set here for values at or beyond the usual limits of such assays; details: source organism: Dengue virus 3 Singapore/8120/1995
[24] = molecular target: HLA-A*02:01; test: IEDB peptide-MHC binding, purified MHC/direct/fluorescence; filed as Kd, often an IC50 or EC50 that approximates it; ≥ and ≤ were set here for values at or beyond the usual limits of such assays; details: source organism: Homo sapiens
[25] = molecular target: HLA-B*15:01; test: IEDB peptide-MHC binding, purified MHC/competitive/fluorescence; filed as Kd, often an IC50 or EC50 that approximates it; ≥ and ≤ were set here for values at or beyond the usual limits of such assays; details: source organism: Homo sapiens
[26] = molecular target: HLA-B*18:01; test: as above; details: source organism: Homo sapiens
[27] = molecular target: HLA-B*39:01; test: as above; details: source organism: Homo sapiens
[28] = molecular target: HLA-A*69:01; test: as above; details: source organism: Homo sapiens
[29] = molecular target: HLA-B*51:01; test: as above; details: source organism: Homo sapiens
[30] = molecular target: HLA-B*46:01; test: as above; details: source organism: Homo sapiens
[31] = molecular target: HLA-B*27:03; test: as above; details: source organism: Homo sapiens
[32] = molecular target: HLA-B*57:01; test: as above; details: source organism: Homo sapiens
[33] = molecular target: HLA-A*26:01; test: as above; details: source organism: Homo sapiens
[34] = molecular target: HLA-B*15:17; test: as above; details: source organism: Homo sapiens
[35] = source organism: Mammarenavirus whitewaterense
[36] = source organism: Mammarenavirus machupoense
[37] = source organism: SARS coronavirus Tor2
[38] = source organism: Mammarenavirus juninense
[39] = source organism: Dengue virus 3 Martinique/1243/1999
[40] = source organism: dengue virus type 4
[41] = source organism: Mammarenavirus lassaense
[42] = source organism: Camelpox virus M-96
[43] = source organism: Dengue virus 1 Singapore/S275/1990
[44] = source organism: Giardia lamblia ATCC 50803
[45] = source organism: Mycobacterium tuberculosis str. Haarlem
[46] = source organism: Dengue virus 1 Brazil/97-11/1997
[47] = source organism: Orthonairovirus haemorrhagiae
[48] = source organism: Dengue virus 3 China/80-2/1980
[49] = source organism: Mammarenavirus brazilense
[50] = source organism: Vibrio parahaemolyticus AQ3810
[51] = source organism: Mycobacterium tuberculosis C

Sequence: AEQSRIFEEL
Kd [1, 35]: ≥ 20800 nM
Kd [2, 35]: 57.4 nM
Kd [3, 35]: 10200 nM
Kd [4, 35]: 16.8 nM
Kd [5, 35]: 430 nM
Kd [6, 35]: 206 nM

Sequence: EEPAALLPL
Kd [1, 36]: 5640 nM
Kd [2, 36]: ≥ 39900 nM
Kd [3, 36]: 7110 nM
Kd [4, 36]: 57.1 nM
Kd [5, 36]: ≥ 41200 nM
Kd [6, 36]: ≥ 23400 nM

Kd ([7]; source organism: Escherichia coli O157:H7 str. Sakai): ≥ 20000 nM
Sequence: FSFGDYFKH

Sequence: GETALALLL
Kd [1, 37]: ≥ 22700 nM
Kd [2, 37]: 31.4 nM
Kd [3, 37]: 1.22 nM
Kd [4, 37]: 7.78 nM
Kd [5, 37]: 13.2 nM
Kd [6, 37]: 448 nM

Sequence: HDLPLLCTL
Kd [1, 38]: 1710 nM
Kd [2, 38]: 9820 nM
Kd [3, 38]: 16100 nM
Kd [4, 38]: 8.52 nM
Kd [5, 38]: 19100 nM
Kd [6, 38]: ≥ 74600 nM

Sequence: KAYAQMWSL
Kd [8, 39]: 27.2 nM
Kd [9, 39]: 24.8 nM
Kd [10, 40]: 10.1 nM
Kd [11, 40]: 1.3 nM

Sequence: KEAYCQEFLL
Kd [1, 41]: ≥ 45900 nM
Kd [2, 41]: 1260 nM
Kd [3, 41]: 10200 nM
Kd [4, 41]: 33.7 nM
Kd [5, 41]: 5010 nM
Kd [6, 41]: 6680 nM

Sequence: KLIEGTNIW
Kd [12, 42]: 7.7 nM
Kd [10, 42]: 70.5 nM
Kd [11, 42]: 67.9 nM

Sequence: KTMAMVLSIV
Kd [8, 43]: 1.96 nM
Kd [13, 43]: 52.5 nM
Kd [14, 43]: 2860 nM
Kd [15, 43]: 26.4 nM
Kd [16, 43]: 1.18 nM

Sequence: LASSSYEQF
Kd [12, 44]: 36.5 nM
Kd [10, 44]: 188 nM
Kd [11, 44]: 21.8 nM

Sequence: LPAQLTATA
Kd [17]: 184 nM
Kd [18]: 441 nM
Kd [19, 45]: ≥ 20000 nM
Kd [20, 45]: ≥ 20000 nM

Sequence: LTAAVLMLV
Kd [8, 46]: 10.6 nM
Kd [13, 46]: 11.3 nM
Kd [21]: 17700 nM
Kd [14, 43]: 561 nM
Kd [15, 43]: 1.14 nM
Kd [16, 46]: 11.8 nM

Sequence: MIRRRNQIL
Kd [19, 47]: 843 nM
Kd [20, 47]: 3 nM
Kd [22, 47]: ≥ 20000 nM

Sequence: MLWMADVPL
Kd [14, 48]: 2.72 nM
Kd [15, 48]: 1.16 nM
Kd [23]: 658 nM
Kd ([9]; source organism: Dengue virus 3 Singapore/8120/1995): 29.1 nM

Sequence: PDVGVLFGL
Kd [1, 36]: ≥ 44100 nM
Kd [2, 36]: ≥ 77900 nM
Kd [3, 36]: ≥ 76100 nM
Kd [4, 36]: ≥ 22800 nM
Kd [5, 36]: ≥ 78100 nM
Kd [6, 36]: ≥ 25100 nM

Sequence: PEDQGNPIVL
Kd [1, 49]: ≥ 39300 nM
Kd [2, 49]: ≥ 70200 nM
Kd [3, 49]: ≥ 30600 nM
Kd [4, 49]: 10500 nM
Kd [5, 49]: ≥ 70100 nM
Kd [6, 49]: ≥ 70000 nM

Kd ([7]; source organism: Escherichia coli K-12): 12.8 nM
Sequence: QLAFFVAGK

Sequence: QTWKPDDVL
Kd ([12]; source organism: Vibrio parahaemolyticus): ≥ 20000 nM
Kd [10, 50]: ≥ 20000 nM
Kd [11, 50]: 730 nM

Sequence: REMLAHAEET
Kd [1, 37]: 1030 nM
Kd [2, 37]: 895 nM
Kd [3, 37]: 922 nM
Kd [4, 37]: 68 nM
Kd [5, 37]: 228 nM
Kd [6, 37]: 151 nM

Kd ([7]; source organism: Trichodesmium erythraeum IMS101): 73 nM
Sequence: RVDEIILFH

Sequence: RWFFRPLRK
Kd ([7]; source organism: Entamoeba dispar SAW760): 125 nM

Sequence: SEGVPDLLV
Kd [1, 37]: ≥ 77500 nM
Kd [2, 37]: ≥ 37100 nM
Kd [3, 37]: ≥ 29100 nM
Kd [4, 37]: ≥ 37000 nM
Kd [5, 37]: ≥ 20900 nM
Kd [6, 37]: 13900 nM

Sequence: TEAFEKMVSL
Kd [1, 37]: 1550 nM
Kd [2, 37]: 1920 nM
Kd [3, 37]: 3.52 nM
Kd [4, 37]: 34.7 nM
Kd [5, 37]: 5740 nM
Kd [6, 37]: 4460 nM

Sequence: TEHSWNADL
Kd [1, 37]: 8390 nM
Kd [2, 37]: 125 nM
Kd [3, 37]: 34 nM
Kd [4, 37]: 132 nM
Kd [5, 37]: 137 nM
Kd [6, 37]: 331 nM

Sequence: VELKHFFFA
Kd [1, 37]: 1710 nM
Kd [2, 37]: 15600 nM
Kd [3, 37]: ≥ 29800 nM
Kd [4, 37]: 103 nM
Kd [5, 37]: 2630 nM
Kd [6, 37]: 15.8 nM

Kd [24]: 1.5 nM
Kd [25]: ≥ 20000 nM
Kd [26]: ≥ 20000 nM
Kd [27]: ≥ 20000 nM
Kd [28]: ≥ 20000 nM
Kd [29]: ≥ 20000 nM
Kd [30]: ≥ 20000 nM
Kd [31]: ≥ 20000 nM
Kd [32]: ≥ 20000 nM
Kd [33]: ≥ 20000 nM
Kd [34]: ≥ 20000 nM
Sequence: VLIRRCHYL

Kd [25]: ≥ 20000 nM
Kd [26]: ≥ 20000 nM
Kd [27]: ≥ 20000 nM
Kd [28]: ≥ 20000 nM
Kd ([22]; source organism: Homo sapiens): ≥ 20000 nM
Kd [29]: ≥ 20000 nM
Kd [30]: ≥ 20000 nM
Kd [31]: ≥ 20000 nM
Kd [32]: ≥ 20000 nM
Kd [33]: ≥ 20000 nM
Sequence: VSDFRKEFY

Sequence: YLRRRQKAL
Kd [19, 51]: 1310 nM
Kd [20, 51]: 10 nM

Sequence: YSKVKLLGL
Kd ([19]; source organism: Kurkino virus): 512 nM
Kd ([20]; source organism: Orthohantavirus dobravaense): 52.5 nM
